This note sets out measurements from the supplement of paper PMC9112550, “Optimization of the antimicrobial peptide Bac7 by deep mutational scanning” (BMC Biology, 2022).

The subject of the data set is Escherichia coli TOP10. Briefly: shrunken log2 fold change of peptide-encoding DNA abundance (4.5 h post-induction vs induction); higher = less antimicrobial activity (less host growth inhibition). The settings on record: time post-induction: 4.5 h; library: site-saturation at positions 5, 18, 19, 20.
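Note: peptides expressed intracellularly from a pBAD plasmid library in pooled LB shake-flask culture, induced with 0.3% L-arabinose, DNA abundance read by NGS, three biological replicates, DESeq2 with apeglm shrinkage.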

Take RRIRNRPPRLPRPRPRPQWVPRP: the “shrunken log2 fold change” value was 0.00681. As for RRIRIRPPRLPRPRPRPYGWPRP, the “shrunken log2 fold change” value is -0.0644.

Turning to RRIRERPPRLPRPRPRPAWGPRP, the “shrunken log2 fold change” value was -0.00226. Next, RRIRFRPPRLPRPRPRPHAHPRP: -0.0397; RRIRHRPPRLPRPRPRPILQPRP: -0.152; RRIRDRPPRLPRPRPRPYLQPRP: -0.0926. Turning to RRIRDRPPRLPRPRPRPHIYPRP, the “shrunken log2 fold change” value was -0.0848.

As for RRIRSRPPRLPRPRPRPGSVPRP, the “shrunken log2 fold change” value is -0.0129. The result for RRIRDRPPRLPRPRPRPLQSPRP reads -0.015; that for RRIRDRPPRLPRPRPRPGQLPRP, -0.284. As to RRIRPRPPRLPRPRPRPSPPPRP, the “shrunken log2 fold change” value worked out at 0.0408. As for RRIRERPPRLPRPRPRPPNKPRP, the “shrunken log2 fold change” value was -0.243.

In the case of RRIRPRPPRLPRPRPRPRQSPRP, the “shrunken log2 fold change” value was 0.0298. Turning to RRIRNRPPRLPRPRPRPLVGPRP, the “shrunken log2 fold change” value turned out to be 0.0121. The result for RRIRGRPPRLPRPRPRPWQTPRP reads 0.174. Next, RRIRDRPPRLPRPRPRPINEPRP: -0.144; RRIRSRPPRLPRPRPRPHPRPRP: 0.375; RRIRRRPPRLPRPRPRPGVPPRP: 0.264. Next, RRIRNRPPRLPRPRPRPNPEPRP: -0.224; RRIRMRPPRLPRPRPRPRFEPRP: 0.36; RRIRMRPPRLPRPRPRPTANPRP: 0.921. With RRIRPRPPRLPRPRPRPQHTPRP, the “shrunken log2 fold change” value was 0.769. The result for RRIRYRPPRLPRPRPRPHPVPRP reads -0.185. Next, RRIRKRPPRLPRPRPRPDTEPRP: 1.13. Next, RRIRRRPPRLPRPRPRPADFPRP: 0.115. Turning to RRIRPRPPRLPRPRPRPKHWPRP, the “shrunken log2 fold change” value turned out to be 0.273.

Turning to RRIRCRPPRLPRPRPRPSRIPRP, the “shrunken log2 fold change” value is -0.562. Next, RRIRDRPPRLPRPRPRPTRMPRP: 0.154; RRIRKRPPRLPRPRPRPSRYPRP: 0.086; RRIRMRPPRLPRPRPRPRIWPRP: 0.726. The result for RRIRERPPRLPRPRPRPAHTPRP reads -0.0788. Next, RRIRSRPPRLPRPRPRPMGLPRP: 0.101. Turning to RRIRDRPPRLPRPRPRPHDPPRP, the “shrunken log2 fold change” value is -0.147. The result for RRIRPRPPRLPRPRPRPLTCPRP reads -0.191; that for RRIRDRPPRLPRPRPRPRILPRP, -0.116.

RRIRDRPPRLPRPRPRPPDCPRP: the “shrunken log2 fold change” value was found to be 0.077.

For RRIRGRPPRLPRPRPRPYKPPRP, the “shrunken log2 fold change” value is -0.571. With RRIRWRPPRLPRPRPRPPQPPRP, the “shrunken log2 fold change” value worked out at 0.66. The result for RRIRMRPPRLPRPRPRPRAWPRP reads 0.32.

As for RRIRRRPPRLPRPRPRPTLAPRP, the “shrunken log2 fold change” value turned out to be 0.939. As to RRIRKRPPRLPRPRPRPLYHPRP, the “shrunken log2 fold change” value is -0.364.

RRIRHRPPRLPRPRPRPQMFPRP: the “shrunken log2 fold change” value is -0.0824.

With RRIRLRPPRLPRPRPRPGTPPRP, the “shrunken log2 fold change” value turned out to be 0.0973. Next, RRIRIRPPRLPRPRPRPTGTPRP: -0.109. With RRIRHRPPRLPRPRPRPPNMPRP, the “shrunken log2 fold change” value was -0.0135. The result for RRIRARPPRLPRPRPRPREFPRP reads 0.441. The result for RRIRLRPPRLPRPRPRPRYKPRP reads -0.225; that for RRIRHRPPRLPRPRPRPNLMPRP, 0.0972; that for RRIRSRPPRLPRPRPRPPNEPRP, 0.0505. As to RRIRVRPPRLPRPRPRPGLLPRP, the “shrunken log2 fold change” value is -0.146. Turning to RRIRTRPPRLPRPRPRPSGDPRP, the “shrunken log2 fold change” value is -0.221.

Turning to RRIRFRPPRLPRPRPRPSNHPRP, the “shrunken log2 fold change” value was -0.681. For the sequence RRIRARPPRLPRPRPRPPCWPRP, the “shrunken log2 fold change” value was 0.967. With RRIRMRPPRLPRPRPRPKGYPRP, the “shrunken log2 fold change” value is -0.0135.

As to RRIRARPPRLPRPRPRPIGKPRP, the “shrunken log2 fold change” value is -0.00841. The result for RRIRERPPRLPRPRPRPQVFPRP reads -0.0552. RRIRLRPPRLPRPRPRPHPKPRP: the “shrunken log2 fold change” value is -0.0255. With RRIRARPPRLPRPRPRPSKNPRP, the “shrunken log2 fold change” value worked out at 0.235.

In the case of RRIRARPPRLPRPRPRPPWYPRP, the “shrunken log2 fold change” value is 0.139. The result for RRIRFRPPRLPRPRPRPFMDPRP reads -0.00928. Consider RRIRIRPPRLPRPRPRPIHRPRP, for which the “shrunken log2 fold change” value is -0.197. Next, RRIRRRPPRLPRPRPRPRFGPRP: 0.438; RRIRKRPPRLPRPRPRPRNSPRP: -0.0385. The result for RRIRPRPPRLPRPRPRPKGTPRP reads 0.0309. With RRIRVRPPRLPRPRPRPEFDPRP, the “shrunken log2 fold change” value amounted to 0.197.

As for RRIRSRPPRLPRPRPRPSRHPRP, the “shrunken log2 fold change” value stood at 0.0757. As to RRIRSRPPRLPRPRPRPSCAPRP, the “shrunken log2 fold change” value amounted to 0.0589. The result for RRIRCRPPRLPRPRPRPWDMPRP reads -0.0934; that for RRIRMRPPRLPRPRPRPKHDPRP, 0.43.

Take RRIRTRPPRLPRPRPRPMDGPRP: the “shrunken log2 fold change” value was -0.123.

For the sequence RRIRPRPPRLPRPRPRPKPRPRP, the “shrunken log2 fold change” value worked out at 0.502. Next, RRIRFRPPRLPRPRPRPTYQPRP: -0.393. With RRIRHRPPRLPRPRPRPTKVPRP, the “shrunken log2 fold change” value was -0.0672.

Regarding RRIRKRPPRLPRPRPRPKMMPRP, the “shrunken log2 fold change” value amounted to 0.421. RRIRDRPPRLPRPRPRPTWWPRP: the “shrunken log2 fold change” value amounted to 0.433. The result for RRIRVRPPRLPRPRPRPIYPPRP reads -0.413.

RRIRGRPPRLPRPRPRPLSHPRP: the “shrunken log2 fold change” value worked out at 0.557. The result for RRIRSRPPRLPRPRPRPTYYPRP reads -0.42. Next, RRIRWRPPRLPRPRPRPMTPPRP: 0.764. The result for RRIRHRPPRLPRPRPRPYCSPRP reads -0.337; that for RRIRERPPRLPRPRPRPDVFPRP, -0.0359. Regarding RRIRTRPPRLPRPRPRPHDMPRP, the “shrunken log2 fold change” value was 0.000904.

For the sequence RRIRWRPPRLPRPRPRPRKLPRP, the “shrunken log2 fold change” value is 0.133.

For the sequence RRIRPRPPRLPRPRPRPSQYPRP, the “shrunken log2 fold change” value was -0.415. In the case of RRIRQRPPRLPRPRPRPVQSPRP, the “shrunken log2 fold change” value was 0.0508. The result for RRIRDRPPRLPRPRPRPFYHPRP reads -0.124. The result for RRIRPRPPRLPRPRPRPFSYPRP reads -0.192.

On to RRIRHRPPRLPRPRPRPSYVPRP, for which the “shrunken log2 fold change” value is -1.15. Regarding RRIRRRPPRLPRPRPRPNVNPRP, the “shrunken log2 fold change” value is -0.0627. The result for RRIRWRPPRLPRPRPRPMQCPRP reads 0.0434; that for RRIRERPPRLPRPRPRPGTWPRP, -0.0304. Next, RRIRHRPPRLPRPRPRPCLSPRP: 0.0289; RRIRCRPPRLPRPRPRPDPRPRP: 0.83. RRIRVRPPRLPRPRPRPNCDPRP: the “shrunken log2 fold change” value was -0.356. The result for RRIRERPPRLPRPRPRPGYIPRP reads -0.709; that for RRIRMRPPRLPRPRPRPECEPRP, 0.206.

As for RRIRQRPPRLPRPRPRPSPKPRP, the “shrunken log2 fold change” value is -0.143.

With RRIRRRPPRLPRPRPRPARHPRP, the “shrunken log2 fold change” value was found to be 0.447. RRIRIRPPRLPRPRPRPTVNPRP: the “shrunken log2 fold change” value is -0.608. The result for RRIRRRPPRLPRPRPRPQDFPRP reads -0.078; that for RRIRNRPPRLPRPRPRPEFSPRP, 0.0268; that for RRIRLRPPRLPRPRPRPFVMPRP, -0.241. On to RRIRMRPPRLPRPRPRPNGLPRP, for which the “shrunken log2 fold change” value was found to be 0.062. Next, RRIRCRPPRLPRPRPRPHEPPRP: -0.00114; RRIRHRPPRLPRPRPRPSTQPRP: -0.0473. Take RRIRPRPPRLPRPRPRPVAQPRP: the “shrunken log2 fold change” value was determined as 0.123. The result for RRIRYRPPRLPRPRPRPTSMPRP reads -1; that for RRIRERPPRLPRPRPRPYSIPRP, -0.0605. Take RRIRVRPPRLPRPRPRPTPYPRP: the “shrunken log2 fold change” value is -0.0655. Next, RRIRERPPRLPRPRPRPAFWPRP: 0.632; RRIRLRPPRLPRPRPRPHFSPRP: -0.189; RRIRHRPPRLPRPRPRPRGSPRP: -0.00481.

With RRIRFRPPRLPRPRPRPADPPRP, the “shrunken log2 fold change” value was 0.109. Next, RRIRQRPPRLPRPRPRPNQGPRP: 0.084; RRIRARPPRLPRPRPRPSTHPRP: -0.0532; RRIRWRPPRLPRPRPRPMQLPRP: 0.12. The result for RRIRKRPPRLPRPRPRPSNEPRP reads -0.183.

Regarding RRIRHRPPRLPRPRPRPFCIPRP, the “shrunken log2 fold change” value was -0.538.

With RRIRQRPPRLPRPRPRPGSTPRP, the “shrunken log2 fold change” value was -0.146. The result for RRIRFRPPRLPRPRPRPGRPPRP reads 0.514; that for RRIRWRPPRLPRPRPRPVCAPRP, 0.553; that for RRIRPRPPRLPRPRPRPHYFPRP, -0.335. Next, RRIRMRPPRLPRPRPRPGSCPRP: 0.29; RRIRIRPPRLPRPRPRPNIKPRP: -1.05; RRIRVRPPRLPRPRPRPRWAPRP: 0.343.
